IntAct's records for PubMed 22493499

B1: Signaling lymphocytic activation molecule (Mus musculus), Q9QUM4 (parent)
chain: MDPKGSLSWRILLFLSLAFELSYGTGGGVMDCPVILQKLGQDTWLPLTNEHQINKSVNKSVRILVTMATSPGSKSNKKIVSFDLSKGSYPDHLEDGYHFQSKNLSLKILGNRRESEGWYLVSVEENVSVQQFCKQLKLYEQVSPPEIKVLNKTQENENGTCSLLLACTVKKGDHVTYSWSDEAGTHLLSRANRSHLLHITLSNQHQDSIYNCTASNPVSSISRTFNLSSQACKQESSSESSPWMQYTLVPLGVVIIFILVFTAIIMMKRQGKSNHCQPPVEEKSLTIYAQVQKSGPQEKKLHDALTDQDPCTTIYVAATEPAPESVQEPNPTTVYASVTLPES

Variants of: B1
Details: with becn1_human BECN1, Q14457
becn1_human BECN1, Q14457, sequence (Q14457 whole entry): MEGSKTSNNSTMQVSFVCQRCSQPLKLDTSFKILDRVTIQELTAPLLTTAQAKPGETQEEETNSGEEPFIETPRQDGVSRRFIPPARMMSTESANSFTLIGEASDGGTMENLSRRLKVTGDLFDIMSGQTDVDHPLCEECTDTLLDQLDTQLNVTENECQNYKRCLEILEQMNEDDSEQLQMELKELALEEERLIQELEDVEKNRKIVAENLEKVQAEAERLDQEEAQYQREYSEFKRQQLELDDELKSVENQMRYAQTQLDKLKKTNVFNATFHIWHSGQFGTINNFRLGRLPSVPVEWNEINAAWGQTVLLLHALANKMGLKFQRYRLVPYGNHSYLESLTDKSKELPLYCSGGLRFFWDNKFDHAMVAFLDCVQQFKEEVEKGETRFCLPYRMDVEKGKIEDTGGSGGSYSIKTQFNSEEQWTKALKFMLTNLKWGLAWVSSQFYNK

Row | effect of a mutation on the interaction | Variant
1 | decreasing interaction | Y288F;Y315F
2 | decreasing interaction | Y315F;Y335F
3 | decreasing interaction | Y288F;Y335F
